This passage reports specific killing via NKG2D: killing of C1R/ULBP1 (37%) minus killing of C1R/Mock (20%) by primary bulk NK culture NK-A.K., effector-to-target ratio 5:1, PI co-staining of CFSE-labelled target cells results from PMC2680030.

For this assay, the target named is ULBP1 (UniProt Q9BZM6).
UniProt Q9BZM6, sequence (Q9BZM6 26-216): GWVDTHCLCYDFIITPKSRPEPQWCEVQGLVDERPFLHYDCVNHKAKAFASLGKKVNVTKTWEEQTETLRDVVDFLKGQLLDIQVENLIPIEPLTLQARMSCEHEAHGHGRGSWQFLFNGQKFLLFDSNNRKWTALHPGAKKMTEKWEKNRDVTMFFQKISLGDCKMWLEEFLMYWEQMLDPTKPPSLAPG

NKG2D, sequence (P26718 whole entry): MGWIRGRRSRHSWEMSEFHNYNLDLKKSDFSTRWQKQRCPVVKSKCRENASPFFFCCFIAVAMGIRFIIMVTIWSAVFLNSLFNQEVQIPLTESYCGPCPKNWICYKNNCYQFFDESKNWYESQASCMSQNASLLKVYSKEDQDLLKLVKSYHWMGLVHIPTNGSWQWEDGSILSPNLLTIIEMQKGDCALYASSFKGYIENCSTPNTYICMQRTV

Regarding “NKG2D (from UniProt P26718 1-216) (receptor)”, the specific killing via NKG2D: killing of C1R/ULBP1 (37%) minus killing of C1R/Mock (20%) by primary bulk NK culture NK-A.K., effector-to-target ratio 5:1, PI co-staining of CFSE-labelled target cells worked out at 17%.
